Results reported in publication PMC5247666, “The Production and Utilization of GDP-glucose in the Biosynthesis of Trehalose 6-Phosphate by Streptomyces venezuelae*” (The Journal of Biological Chemistry, 2016).

Columns and labels:
[1] = target: Streptomyces venezuelae OtsA (trehalose-6-phosphate synthase) (Streptomyces venezuelae); experiment: SEC; Superdex 200 10/300 GL calibrated with size standards; 20 mM HEPES pH 7.0, 10 mM MgCl2, 100 mM NaCl; size of the self-associated form
SVEN_3027 = target: T1, SVEN_3027 (Streptomyces venezuelae, UniProt F2R7M8); experiment: stopped coupled assay of pyrophosphate (inorganic pyrophosphatase, malachite green); format: biochemical; settings: glucose 1-phosphate as co-substrate
T1 construct: synthetic gene, E. coli BL21(DE3)pLysS
T1 sequence (F2R7M8 entry or part of it): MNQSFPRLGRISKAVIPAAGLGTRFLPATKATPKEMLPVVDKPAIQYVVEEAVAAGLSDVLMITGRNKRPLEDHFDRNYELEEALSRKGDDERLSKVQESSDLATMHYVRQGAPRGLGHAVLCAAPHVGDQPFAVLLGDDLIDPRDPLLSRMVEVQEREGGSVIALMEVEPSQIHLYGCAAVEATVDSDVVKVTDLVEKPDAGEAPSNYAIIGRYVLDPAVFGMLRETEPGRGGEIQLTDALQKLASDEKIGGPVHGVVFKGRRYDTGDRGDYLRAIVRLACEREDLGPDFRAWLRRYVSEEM

[2] = target: the molecule itself; experiment: SEC; Superdex 200 16/600; 50 mM MOPS pH 8.0, 0.025 mM EDTA, 5% (w/v) sucrose; size of the self-associated form
[3] = substrate: O=P(O)(O)O[C@H]1O[C@H](CO)[C@@H](O)[C@H](O)[C@@H]1O; experiment: stopped coupled assay of pyrophosphate (inorganic pyrophosphatase, malachite green); format: biochemical, Streptomyces venezuelae; settings: ITP 1 mM fixed
From the text: (§1) stopped coupled assay of pyrophosphate (inorganic pyrophosphatase, malachite green) on SVEN_3972

[4] = substrate: O=P(O)(O)O[C@H]1O[C@H](CO)[C@@H](O)[C@H](O)[C@H]1O; experiment: as above; format: biochemical, Streptomyces venezuelae; settings: GTP 2 mM fixed
From the text: as §1

[5] = substrate: O=P(O)(O)OP(=O)(O)OP(=O)(O)OC[C@H]1O[C@@H](n2cnc3c(O)ncnc32)[C@H](O)[C@@H]1O; experiment: as above; format: biochemical, Streptomyces venezuelae; settings: mannose 1-phosphate 2 mM fixed
From the text: as §1

[6] = substrate: Nc1nc2c(ncn2[C@@H]2O[C@H](COP(=O)(O)OP(=O)(O)OP(=O)(O)O)[C@@H](O)[C@H]2O)c(=O)[nH]1; experiment: as above; format: biochemical, Streptomyces venezuelae; settings: mannose 1-phosphate 2 mM fixed
From the text: as §1

[7] = substrate: Nc1ncnc2c1ncn2[C@@H]1O[C@H](COP(=O)(O)OP(=O)(O)O[C@H]2O[C@H](CO)[C@@H](O)[C@H](O)[C@H]2O)[C@@H](O)[C@H]1O; experiment: continuous coupled assay of NDP release (pyruvate kinase/lactate dehydrogenase); format: biochemical, Streptomyces venezuelae; settings: glucose 6-phosphate 5 mM fixed
From the text: (§2) continuous coupled assay of NDP release (pyruvate kinase/lactate dehydrogenase) on S. venezuelae OtsA

[8] = substrate: Nc1nc2c(ncn2[C@@H]2O[C@H](COP(=O)(O)OP(=O)(O)O[C@H]3O[C@H](CO)[C@@H](O)[C@H](O)[C@H]3O)[C@@H](O)[C@H]2O)c(=O)[nH]1; experiment: as above; format: biochemical, Streptomyces venezuelae; settings: glucose 6-phosphate 5 mM fixed
From the text: as §2

[9] = substrate: O=P(O)(O)O[C@H]1O[C@H](CO)[C@@H](O)[C@H](O)[C@@H]1O; experiment: stopped coupled assay of pyrophosphate (inorganic pyrophosphatase, malachite green); format: biochemical, Streptomyces venezuelae; settings: GTP 0.3 mM fixed
From the text: (§3) stopped coupled assay of pyrophosphate (inorganic pyrophosphatase, malachite green) on SVEN_2781

[10] = substrate: O=P(O)(O)O[C@H]1O[C@H](CO)[C@@H](O)[C@H](O)[C@H]1O; experiment: as above; format: biochemical, Streptomyces venezuelae; settings: GTP 0.3 mM fixed
From the text: as §3

[11] = substrate: Nc1nc2c(ncn2[C@@H]2O[C@H](COP(=O)(O)OP(=O)(O)OP(=O)(O)O)[C@@H](O)[C@H]2O)c(=O)[nH]1; experiment: as above; format: biochemical, Streptomyces venezuelae; settings: glucose 1-phosphate 1 mM fixed
From the text: as §3

## Streptomyces venezuelae OtsA (trehalose-6-phosphate synthase) (enzyme)
[1]
  stoichiometry N: 2

## Cc1cn([C@H]2C[C@H](O)[C@@H](COP(=O)(O)OP(=O)(O)OP(=O)(O)O)O2)c(=O)[nH]c1=O [dTTP]
SVEN_3027
  stopped coupled assay of pyrophosphate (inorganic pyrophosphatase, malachite gre): donor substrate preference was UTP > dTTP ≫ CTP > GTP > ATP > ITP

## O=c1ccn([C@@H]2O[C@H](COP(=O)(O)OP(=O)(O)OP(=O)(O)O)[C@@H](O)[C@H]2O)c(=O)[nH]1 [UTP]
SVEN_3027
  stopped coupled assay of pyrophosphate (inorganic pyrophosphatase, malachite gre): donor substrate preference was UTP > dTTP ≫ CTP > GTP > ATP > ITP

B1: Streptomyces venezuelae SVEN_3972 (ITP-mannose pyrophosphorylase) (enzyme, UniProt F2RFV6 1-238, looked up)
chain: MHTSPTQAVVLAGGQGSRLRPYTDDRPKPMVEIPGTGTPIIGHQLSWLAAEGVTDAVVSCGHLAEVLQEWLEGADLPLKVTTVVETEPLGRGGGLKYAAAHLPAPDQPWYATNGDIWTRFSLREMAAFHDERDALATLALARPRIPWGAVETDTFGHITDFIEAPPSPFLINAGVYVFSAAFTELLPDLGDHERTTFPRLARERRLAGFPLPQGAYWRAIDTAKDLTEAAKELAAQRG
notes: The His6 tag can be cleaved by TEV protease; also called SVEN15_3882
[2]
  stoichiometry N: 2
[3]
  Km: 860 ± 80 µM
  kcat: 0.0119 ± 0.0004 s⁻¹
  kcat/Km: 14 ± 1 M⁻¹ s⁻¹
[4]
  Km: 7100 ± 800 µM
  kcat: 0.014 ± 0.001 s⁻¹
  kcat/Km: 2 ± 0.3 M⁻¹ s⁻¹
[5]
  Km: 170 ± 20 µM
  kcat: 0.049 ± 0.001 s⁻¹
  kcat/Km: 300 ± 30 M⁻¹ s⁻¹
[6]
  Km: 470 ± 30 µM
  kcat: 0.0156 ± 0.0004 s⁻¹
  kcat/Km: 33 ± 2 M⁻¹ s⁻¹

B2: S. venezuelae OtsA (Streptomyces venezuelae ATCC 10712) (protein)
chain: MASVLVASNRGPVSYVRGEDGELDARRGGGGLVSGLSAVSSQDSLWVCAALGEGDREAVRRGIGEPGVRMLDIAPDVYADAYNGIANSVLWFLHHHLYDIPREPVFDAAFRHRWEAYRAYNRAFAEALAAAADEGAAVLVQDYHLALVPGQLRELRPDLRIGHFTHTPWASPEYFRMLPADIGDELLRGMLGADELGFHTSAWASAFLSCAGGEQPRTRVRVHPLGVDAEELRALAHRPQVDERLARLREEVGDRKTIVRVDRTELSKNILRGLLAYRELLTVHPEWRDRVVHLASAYPSRQDLAAYRAYTASVTELAAEINAEFGTADWQPVLVSVEDDFTRSLAAYRLADVALVNPVRDGMNLVAKEIPVVSDAGCALVLSTGAGAYEELKEDALTVHPYDVSETAEALHTALTMPPPERADRTKRLASAATALPPQRWFLNQLEGLSDA
notes: synthetic gene, E. coli SoluBL21; 51 kDa with tag; homodimer (109 kDa by SEC)
[7]
  Km: 440 ± 50 µM
  kcat: 29 ± 1 s⁻¹
  kcat/Km: 67000 ± 7000 M⁻¹ s⁻¹
[8]
  Km: 120 ± 20 µM
  kcat: 139 ± 8 s⁻¹
  kcat/Km: 1.14e+06 ± 223000 M⁻¹ s⁻¹

B3: SVEN_2781 (Streptomyces venezuelae ATCC 10712) (protein)
chain: MTEAILLVGGKGTRLRPLTVNTPKPMVPAAGVPFLTHQLARARAAGVEHIVLATSYLAEVFEPHFGDGSSLGLSLEYVTEEEPLGTGGAIRNVASRLHSGPDDPVLIFNGDILTGLDIQALVATHSSSGADVSLHLTRVEDPRAFGLVPTDATGRVTAFLEKPQTPEEIVTDQINAGAYVFRRSVIDTIPAGRPVSVERETFPDLLASGAHLQGMVDSTYWLDLGTPQAFVRGSADLVLGRAPSPAVPGRCGDRLVLPSARVAPDAKLTGGTVVGADAVVGDGARITGSTLLAGAVVEPGAVITDSLIGAGARIGARSVLTGAVIGDGAQVGPDNELRDGVRVWCDATLPAGAVRFSSDQ
notes: synthetic gene, E. coli BL21(DE3); active form dimer
[9]
  Km: 2700 ± 300 µM
  kcat: 0.167 ± 0.008 s⁻¹
  kcat/Km: 60 ± 10 M⁻¹ s⁻¹
[10]
  Km: 1400 ± 100 µM
  kcat: 0.171 ± 0.004 s⁻¹
  kcat/Km: 120 ± 10 M⁻¹ s⁻¹
[11]
  Km: 260 ± 20 µM
  kcat: 0.159 ± 0.002 s⁻¹
  kcat/Km: 610 ± 40 M⁻¹ s⁻¹
